Reference: patent US20240011000

Columns and labels:
[1] = test system: Br512 (villin headpiece HP47-Bst-LF fusion DNA polymerase) (Geobacillus stearothermophilus / Gallus gallus fusion)
Bst 2.0 DNA polymerase = Bst 2.0 DNA polymerase (UniProt P52026); details: RT-LAMP-OSD, 300 genomes, isothermal buffer, 65 C
[2] = test system: Bst-LF (DNA polymerase I large fragment) (Geobacillus stearothermophilus); details: RT-LAMP-OSD, G6D buffer, 65 C

UniProt P52026, sequence (P52026 297-876): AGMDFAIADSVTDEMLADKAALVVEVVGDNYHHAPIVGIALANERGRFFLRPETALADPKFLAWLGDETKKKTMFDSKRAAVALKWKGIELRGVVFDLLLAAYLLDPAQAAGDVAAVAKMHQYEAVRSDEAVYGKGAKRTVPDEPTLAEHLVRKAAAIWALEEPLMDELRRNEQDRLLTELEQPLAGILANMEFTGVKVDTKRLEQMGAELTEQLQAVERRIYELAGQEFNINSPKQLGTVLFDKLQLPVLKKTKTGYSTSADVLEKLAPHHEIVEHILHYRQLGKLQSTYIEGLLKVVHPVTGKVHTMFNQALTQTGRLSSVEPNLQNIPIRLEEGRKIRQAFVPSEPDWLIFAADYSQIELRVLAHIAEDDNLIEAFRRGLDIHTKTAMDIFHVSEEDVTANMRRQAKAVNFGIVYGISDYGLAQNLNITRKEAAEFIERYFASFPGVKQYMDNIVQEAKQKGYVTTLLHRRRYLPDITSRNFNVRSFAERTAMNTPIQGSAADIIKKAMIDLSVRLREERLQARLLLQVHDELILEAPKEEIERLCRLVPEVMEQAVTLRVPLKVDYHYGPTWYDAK

| Substance | activity (% assays positive) [1] | activity (% assays positive) (Bst 2.0 DNA polymerase) | activity (% assays positive) [2] |
| --- | --- | --- | --- |
| SARS-CoV-2 RNA, 6-Lamb target | 100 | 75 | 33 |
| SARS-CoV-2 RNA, NB (N gene) target | 80 | 25 | 16 |
